From patent US20230399393A1, “METHODS TO EXTEND HEALTH-SPAN AND TREAT AGE-RELATED DISEASES” (National University of Singapore, priority 2020, published 2023) come the findings set out here.

Holding throughout (format): in vivo, mouse
The test system of assay [1] is C57Bl/6J mice. Description: Grip strength using a grip strength meter. Particulars: at 110 weeks; vs IgG control antibody. As for the experimental part: (§1) C57Bl/6J mice are randomised to receive either X203 or IgG control antibody at a dose of 40m/kg via IP injection every 3 weeks from age 55 weeks to age 110 weeks.
At 110 weeks, mice are analysed for grip strength using a grip strength meter. Reduced grip strength is a robust marker of ageing-associated frailty in mice (see Fischer et al., Aging (2016) 8: 2370-2391, hereby incorporated by reference in its entirety).
Mice grip a wire mesh attached to the meter with both forelimbs, and are then gently pulled by the tail in a horizontal plane parallel to the base plate of the meter. Grip strength is recorded as the maximum force registered.

Assay [2] concerns C57Bl/6J mice. In words: Analysis of geropathological lesions in tissue sections. Conditions: at 110 weeks; heart, lung, liver, spleen, kidney, skeletal muscle; vs IgG control antibody. As to the method:
as §1
At 110 weeks, mice are euthanized, sections are prepared from heart, lung, liver, spleen, kidney and skeletal muscle tissues, subjected to hematoxylin and eosin or Masson's trichrome staining and analysed by light microscopy. Tissue sections are evaluated for ageing-associated lesions as described in Snider et al., Geroscience (2019) 40: 97-103 and Snyder et al., Geroscience (2019) 41: 455-465 (both hereby incorporated by reference in their entirety). Analysis is performed by a veterinary pathologist blinded to treatment group.

Assay [3] deals with C57Bl/6J mice. Description: Serum IL-6 levels of old mice (ELISA). Conditions: old (110 week-old) male and female mice; vs IgG isotype control. As for the experimental part:
FIG. 51. A neutralizing IL-11 antibody reduces the levels of IL-6 protein in the serum of old mice. Graphs showing the effects of treatment with anti-IL11 (X203) or IgG isotype control on serum IL-6 levels levels of old (110 week-old) male and female mice. Dotted lines indicate the mean serum IL-6 levels of 12 week-old control male (0.159 μg/ml) and female (0.236 μg/ml) mice. Data were analyzed by 2-way ANOVA.
IL-6 is strongly linked with ageing (Maggio et al. 2006, J Gerontol A Biol Sci Med Sci. 61(6): 575-584; Ershler and Keller 2000, Annual Review of Medicine 51: 245-70).
Male and female C57Bl/6J mice aged 46 weeks were purchased from the Jackson Laboratory. Mice were randomised on a 1:1 basis to receive either 40 mg/kg of X203 or an isotype control IgG antibody (11E10), every 3 weeks (IP), starting from 55 weeks of age. Mice were sacrificed at 110 weeks of age for blood and tissues collection. 12 weeks old male and female C57Bl/6J mice that were used as control were purchased from Invivos (Singapore).
The levels of IL6 in mouse serum were quantified using Mouse IL-6 Quantikine ELISA Kit (M6000B; R&D Systems).

For another assay, the system named is C57BL6/J mice. In words: Inflammatory markers in liver, kidney and muscle of old mice (QPCR). Conditions: 40 mg/kg once every three weeks, vs IgG. As to the method: FIG. 52. A neutralizing IL-11 antibody reduces multiple markers of inflammation in kidneys of old mice. Wild-type C57BL6/J mice were treated with an intra-peritoneal injection of anti-IL11 (X203; 40 mg/kg, once every three weeks) or an isotype IgG control (11E10, 40 mg/kg, once every three weeks) from 55 weeks of age until 110 weeks of age. 110 week-old mice were sacrificed and organs harvested, snap frozen and RNA extracted using standard procedures. Samples were analyzed by quantitative RT-PCR (QPCR) using primers specific for Ccl2, Ccl5, Tnfα, Il1β, Il11, Il6 or Gapdh.
FIG. 53. A neutralizing IL-11 antibody reduces multiple markers of inflammation in livers of old mice. Wild-type C57BL6/J mice were treated with an intra-peritoneal injection of anti-IL11 (X203; 40 mg/kg, once every three weeks) or an isotype IgG control (11E10, 40 mg/kg, once every three weeks) from 55 weeks of age until 110 weeks of age. 110 week-old mice were sacrificed and organs harvested, snap frozen and RNA extracted using standard procedures. Samples were analyzed by quantitative RT-PCR (QPCR) using primers specific for Ccl2, Ccl5, Tnfα, Il1β, Il11, Il6 or Gapdh.
FIG. 54. A neutralizing IL-11 antibody reduces multiple markers of inflammation in skeletal muscle (soleus) of old mice. Wild-type C57BL6/J mice were treated with an intra-peritoneal injection of anti-IL11 (X203; 40 mg/kg, once every three weeks) or an isotype IgG control (11E10, 40 mg/kg, once every three weeks) from 55 weeks of age until 110 weeks of age. 110 week-old mice were sacrificed, and organs harvested, snap frozen and RNA extracted using standard procedures. Samples were analyzed by quantitative RT-PCR (QPCR) using primers specific for Ccl2, Ccl5, Tnfα, Il1β, Il11, Il6 or Gapdh. […]
Total RNA was extracted from AML12 or snap-frozen tissues using Trizol (Invitrogen) and RNeasy Mini Kit (Qiagen). […] Expression data were normalized to GAPDH mRNA expression and fold change was calculated using 2^−ΔΔct method.

B1: X203: mouse anti-mouse IL-11 IgG antagonist antibody; VH SEQ ID NO:22, VL SEQ ID NO:23 (antibody, V domains shown)
VH: EVQLQQSGPELVKPGASVKIPCKASGYTFTDYNMDWVKQSHGKSLEWIGDINPHNGGPIYNQKFTGKATLTVDKSSSTAYMELRSLTSEDTAVYYCARGELGHWYFDVWGTGTTVTVSS
VL: DIVLTQSPASLAVSLGQRATISCRASKSVSTSGYSYIHWYQQKPGQPPKLLIYLASNLDSGVPARFSGSGSGTDFTLNIHPVEEEDAATYYCQHSRDLPPTFGGGTKLEIK
Turning to B1, the grip strength entry with C57Bl/6J mice [1] is “greater”. The geropathology lesions entry in the assay with C57Bl/6J mice [2] was “fewer, smaller and/or less developed”. The “levels of IL-6 protein in the serum” value in the assay with C57Bl/6J mice [3] is given as “significantly reduces”. Besides, in the assay with C57BL6/J mice, the “markers of inflammation (CCL2, CCL5, TNFa, IL-1 b, IL-11 and IL-6) in kidney” value is listed as “reduces”; the “markers of inflammation (CCL2, CCL5, TNFa, IL-1 b, IL-11 and IL-6) in liver” value is “reduces”; the “markers of inflammation (CCL2, CCL5, TNFa, IL-1 b, IL-11 and IL-6) in skeletal muscle” value is on record as “reduces”.
